# From patent US20230002480A1
# Columns and labels:
# Assay in all cases: cell-based or functional assay
# [1] = molecular target: HIV-1 Env of pseudovirus 1054_07_TC4_1499 (HIV-1)
# [2] = molecular target: HIV-1 Env of pseudovirus 1056_10_TA11_1826 (HIV-1)
# [3] = molecular target: HIV-1 Env of pseudovirus 1394C9G1(Rev-) (HIV-1)
# [4] = molecular target: HIV-1 Env of pseudovirus 235-47 (HIV-1)
# [5] = molecular target: HIV-1 Env of pseudovirus 263-8 (HIV-1)
# [6] = molecular target: HIV-1 Env of pseudovirus 3103.v3.c10 (HIV-1)
# [7] = molecular target: HIV-1 Env of pseudovirus 3365.v2.c2 (HIV-1)
# [8] = molecular target: HIV-1 Env of pseudovirus AC10.0.29 (HIV-1)
# [9] = molecular target: HIV-1 Env of pseudovirus BF1266.431a (HIV-1)
# [10] = molecular target: HIV-1 Env of pseudovirus BJOX015000.11.5 (HIV-1)
# [11] = molecular target: HIV-1 Env of pseudovirus BJOX025000.01.1 (HIV-1)
# [12] = molecular target: HIV-1 Env of pseudovirus C2101.c01 (HIV-1)
# [13] = molecular target: HIV-1 Env of pseudovirus C3347.c11 (HIV-1)
# [14] = molecular target: HIV-1 Env of pseudovirus CAAN5342.A2 (HIV-1)
# [15] = molecular target: HIV-1 Env of pseudovirus CNE20 (HIV-1)
# [16] = molecular target: HIV-1 Env of pseudovirus CNE58 (HIV-1)
# [17] = molecular target: HIV-1 Env of pseudovirus Ce0682_E4 (HIV-1)
# [18] = molecular target: HIV-1 Env of pseudovirus Ce1086_B2 (HIV-1)
# [19] = molecular target: HIV-1 Env of pseudovirus Ce1172_H1 (HIV-1)
# [20] = molecular target: HIV-1 Env of pseudovirus Du172.17 (HIV-1)
# [21] = molecular target: HIV-1 Env of pseudovirus Du422.1 (HIV-1)
# [22] = molecular target: HIV-1 Env of pseudovirus HIV-16845-2.22 (HIV-1)
# [23] = molecular target: HIV-1 Env of pseudovirus MS208.A1 (HIV-1)
# [24] = molecular target: HIV-1 Env of pseudovirus Q259.d2.17 (HIV-1)
# [25] = molecular target: HIV-1 Env of pseudovirus Q461.e2 (HIV-1)
# [26] = molecular target: HIV-1 Env of pseudovirus Q842.d12 (HIV-1)
# [27] = molecular target: HIV-1 Env of pseudovirus TRJO4551.58 (HIV-1)
# [28] = molecular target: HIV-1 Env of pseudovirus X1193_c1 (HIV-1)
# [29] = molecular target: HIV-1 Env of pseudovirus X1254_c3 (HIV-1)
# [30] = molecular target: HIV-1 Env of pseudovirus X1632_S2_B10 (HIV-1)
# [31] = molecular target: HIV-1 Env of pseudovirus ZM109F.PB4 (HIV-1)
# [32] = molecular target: HIV-1 Env of pseudovirus ZM233M.PB6 (HIV-1)
# [33] = molecular target: HIV-1 Env of pseudovirus ZM247v1(Rev-) (HIV-1)
binder,measurement,setting,value
"N49P22 (antibody, V domains shown) V domain 1: HIQLLQSGPQVKKSGDTVRISCETSGYNFVDSRIHWVRQTPEKRLRWMGWINPLQGGVNYAPEFQGRIRMTRDTFIDTVYVDLSGLTPADTAYYYCARGIDGKSYPFHFWGHGTRVTVFS V domain 2: RFALTQPASVSGSPGQTITITCAGGSVSWFHFPPGKTPRLIIYESSKRPSGVSPRFSGSQSGSTASLIISGLQSDDEGTYFCSILEFFGRGTLVTVLS",IC50,[1],0.654 µg/mL
same,IC80,[1],2.89 µg/mL
same,MPI,[1],100
same,IC50,[2],2.99 µg/mL
same,IC80,[2],> 50 µg/mL
same,MPI,[2],69
same,IC50,[3],> 50 µg/mL
same,IC80,[3],> 50 µg/mL
same,MPI,[3],35
same,IC50,[4],0.037 µg/mL
same,IC80,[4],0.373 µg/mL
same,MPI,[4],99
same,IC50,[5],1.83 µg/mL
same,IC80,[5],18.5 µg/mL
same,MPI,[5],89
same,IC50,[6],> 50 µg/mL
same,IC80,[6],> 50 µg/mL
same,MPI,[6],16
same,IC50,[7],0.254 µg/mL
same,IC80,[7],0.857 µg/mL
same,MPI,[7],98
same,IC50,[8],> 50 µg/mL
same,IC80,[8],> 50 µg/mL
same,MPI,[8],0
same,IC50,[9],> 50 µg/mL
same,IC80,[9],> 50 µg/mL
same,MPI,[9],0
same,IC50,[10],1.26 µg/mL
same,IC80,[10],10.8 µg/mL
same,MPI,[10],89
same,IC50,[11],> 50 µg/mL
same,IC80,[11],> 50 µg/mL
same,MPI,[11],0
same,IC50,[12],0.171 µg/mL
same,IC80,[12],1.06 µg/mL
same,MPI,[12],99
same,IC50,[13],1.18 µg/mL
same,IC80,[13],12.3 µg/mL
same,MPI,[13],89
same,IC50,[14],0.425 µg/mL
same,IC80,[14],1.88 µg/mL
same,MPI,[14],99
same,IC50,[15],> 50 µg/mL
same,IC80,[15],> 50 µg/mL
same,MPI,[15],18
same,IC50,[16],28.4 µg/mL
same,IC80,[16],> 50 µg/mL
same,MPI,[16],57
same,IC50,[17],1.13 µg/mL
same,IC80,[17],> 50 µg/mL
same,MPI,[17],75
same,IC50,[18],> 50 µg/mL
same,IC80,[18],> 50 µg/mL
same,MPI,[18],0
same,IC50,[19],> 50 µg/mL
same,IC80,[19],> 50 µg/mL
same,MPI,[19],0
same,IC50,[20],> 50 µg/mL
same,IC80,[20],> 50 µg/mL
same,MPI,[20],4
same,IC50,[21],> 50 µg/mL
same,IC80,[21],> 50 µg/mL
same,MPI,[21],4
same,IC50,[22],4.6 µg/mL
same,IC80,[22],41.9 µg/mL
same,MPI,[22],87
same,IC50,[23],> 50 µg/mL
same,IC80,[23],> 50 µg/mL
same,MPI,[23],17
same,IC50,[24],> 50 µg/mL
same,IC80,[24],> 50 µg/mL
same,MPI,[24],15
same,IC50,[25],11.2 µg/mL
same,IC80,[25],> 50 µg/mL
same,MPI,[25],66
same,IC50,[26],0.079 µg/mL
same,IC80,[26],0.359 µg/mL
same,MPI,[26],100
same,IC50,[27],> 50 µg/mL
same,IC80,[27],> 50 µg/mL
same,MPI,[27],28
same,IC50,[28],3.49 µg/mL
same,IC80,[28],28.5 µg/mL
same,MPI,[28],85
same,IC50,[29],3.06 µg/mL
same,IC80,[29],29.8 µg/mL
same,MPI,[29],84
same,IC50,[30],> 50 µg/mL
same,IC80,[30],> 50 µg/mL
same,MPI,[30],0
same,IC50,[31],> 50 µg/mL
same,IC80,[31],> 50 µg/mL
same,MPI,[31],1
same,IC50,[32],> 50 µg/mL
same,IC80,[32],> 50 µg/mL
same,MPI,[32],2
same,IC50,[33],> 50 µg/mL
same,IC80,[33],> 50 µg/mL
same,MPI,[33],11
"N49P23 (antibody, V domains shown) VH: QVRLVQSGAGARKTGASMKLSCSTSGYTFTTHHGHFINWVRQARGQGLEWMGWMNPMTGQMNIEGKFQGRVTLTRDIYSDTAYMEMTRLTTGDTGTYYCARGDFGQNYPFHYWGQGSLVIVSS VL: LSALTQPASVSGSPGQSVTISCSGTNRYLVSWYQQHPDKAPKLIIYDDNKRPSGISDRFSASRPDDTASLTISGLQTGDEATYWCASYERFGGGTRLTVLS",IC50,[1],0.272 µg/mL
same,IC80,[1],1.21 µg/mL
same,MPI,[1],100
same,IC50,[2],0.075 µg/mL
same,IC80,[2],0.483 µg/mL
same,MPI,[2],100
same,IC50,[3],> 50 µg/mL
same,IC80,[3],> 50 µg/mL
same,MPI,[3],34
same,IC50,[4],0.085 µg/mL
same,IC80,[4],0.749 µg/mL
same,MPI,[4],90
same,IC50,[5],0.012 µg/mL
same,IC80,[5],0.096 µg/mL
same,MPI,[5],100
same,IC50,[6],43.8 µg/mL
same,IC80,[6],> 50 µg/mL
same,MPI,[6],54
same,IC50,[7],0.017 µg/mL
same,IC80,[7],0.053 µg/mL
same,MPI,[7],100
same,IC50,[8],> 50 µg/mL
same,IC80,[8],> 50 µg/mL
same,MPI,[8],0
same,IC50,[9],0.083 µg/mL
same,IC80,[9],0.44 µg/mL
same,MPI,[9],99
same,IC50,[10],> 50 µg/mL
same,IC80,[10],> 50 µg/mL
same,MPI,[10],0
same,IC50,[11],> 50 µg/mL
same,IC80,[11],> 50 µg/mL
same,MPI,[11],0
same,IC50,[12],0.056 µg/mL
same,IC80,[12],0.362 µg/mL
same,MPI,[12],100
same,IC50,[13],0.007 µg/mL
same,IC80,[13],0.032 µg/mL
same,MPI,[13],100
same,IC50,[14],0.412 µg/mL
same,IC80,[14],1.38 µg/mL
same,MPI,[14],100
same,IC50,[15],45.4 µg/mL
same,IC80,[15],> 50 µg/mL
same,MPI,[15],51
same,IC50,[16],> 50 µg/mL
same,IC80,[16],> 50 µg/mL
same,MPI,[16],9
same,IC50,[17],1.39 µg/mL
same,IC80,[17],> 50 µg/mL
same,MPI,[17],76
same,IC50,[18],0.063 µg/mL
same,IC80,[18],0.303 µg/mL
same,MPI,[18],100
same,IC50,[19],> 50 µg/mL
same,IC80,[19],> 50 µg/mL
same,MPI,[19],0
same,IC50,[20],> 50 µg/mL
same,IC80,[20],> 50 µg/mL
same,MPI,[20],45
same,IC50,[21],> 50 µg/mL
same,IC80,[21],> 50 µg/mL
same,MPI,[21],4
same,IC50,[22],> 50 µg/mL
same,IC80,[22],> 50 µg/mL
same,MPI,[22],20
same,IC50,[23],0.048 µg/mL
same,IC80,[23],0.279 µg/mL
same,MPI,[23],100
same,IC50,[24],0.362 µg/mL
same,IC80,[24],7.79 µg/mL
same,MPI,[24],91
same,IC50,[25],0.099 µg/mL
same,IC80,[25],0.464 µg/mL
same,MPI,[25],100
same,IC50,[26],0.007 µg/mL
same,IC80,[26],0.022 µg/mL
same,MPI,[26],100
same,IC50,[27],0.016 µg/mL
same,IC80,[27],0.068 µg/mL
same,MPI,[27],100
same,IC50,[28],0.008 µg/mL
same,IC80,[28],0.038 µg/mL
same,MPI,[28],100
same,IC50,[29],0.022 µg/mL
same,IC80,[29],0.111 µg/mL
same,MPI,[29],100
same,IC50,[30],0.13 µg/mL
same,IC80,[30],> 50 µg/mL
same,MPI,[30],62
same,IC50,[31],0.039 µg/mL
same,IC80,[31],0.18 µg/mL
same,MPI,[31],100
same,IC50,[32],> 50 µg/mL
same,IC80,[32],> 50 µg/mL
same,MPI,[32],14
same,IC50,[33],> 50 µg/mL
same,IC80,[33],> 50 µg/mL
same,MPI,[33],24
